For the test, the target named is sonic hedgehog protein (SHH), endogenous in rat MPG/CN organ culture (rat) (UniProt Q63673). Kind of test: cell-based or functional assay.
Chain of sonic hedgehog protein (SHH), endogenous in rat MPG/CN organ culture (rat) (Q63673 25-198 limits assumed): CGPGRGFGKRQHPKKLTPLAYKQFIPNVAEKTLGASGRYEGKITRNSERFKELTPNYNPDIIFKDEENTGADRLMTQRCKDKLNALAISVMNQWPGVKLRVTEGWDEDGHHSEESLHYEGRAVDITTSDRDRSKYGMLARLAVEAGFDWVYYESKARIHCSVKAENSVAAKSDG

5E1 SHH inhibitor (antibody) registered a neurite formation (growth cones per mm) in uninjured MPG/CN organ culture, three days of 86 % reduction and a neurite formation (growth cones per mm) in uninjured MPG/CN organ culture, three days (fold reduction) of 7.3.

The values are drawn from patent US20190367572A1.
